From PMC9780815 come the findings set out here.

The target in this assay is GFP-BMB1 (Hibiscus green spot virus). The assay is described as follows: FRET or BRET.

Substance BMB2-mRFP (natural protein) came in with an FRET efficiency of 36% and a reduction of the GFP excited-state lifetime (FLIM) against the controls of 0.9 ns.
